1 molecule from patent US20250179187A1, “ANTI PD-L2 ANTIBODY” (REJUVERON SENESCENCE THERAPEUTICS AG, priority 2022, published 2025) can be followed below.

One assay relates to PyMT spontaneous tumors. Description: Spontaneous mouse PyMT breast tumor model with tumor immunostaining. In kind it is in vivo. The protocol:
Hemizygous transgenic PyMT mice were allowed to develop tumors to an average size of around 200 cubic millimeters, usually around 9 weeks, at which time treatment was initiated, with N=3-5 per treatment group. Doxorubicin (Aurovitas) was administered intraperitoneally once per week at 4 mg/kg and antibodies were administered every three days at a dose of 10 mg/kg during four weeks or 3 mg/kg where noted. Vehicle-treated animals received only vehicle solvent for doxorubicin as a no-treatment control. Tumors were measured with a standard caliper once per week. At the end of the study, tumors were resected and further analyzed by immunohistochemistry.
For the depleting study, the same treatment regimen described above was carried out but in combination with CD4 or CD8-depleting antibodies (BioXCell), administered on day −1, day 0 and weekly thereafter at a dose of 200 micrograms per animal.
For double SA-beta-galactosidase/PD-L2 staining, following resection, tumors were fixed in 2% paraformaldehyde and 0.2% glutaldehyde in PBS for 2 hours at room temperature. Samples were washed in PBS for 15 minutes then stained by standard procedures for SA-beta-galactosidase activity overnight. Following this, tumors were washed in PBS for 15 minutes, dehydrated in 70% ethanol and embedded in paraffin, sectioned, and stained for PDL2 with an anti-PDL2 antibody (Cell Signaling, D6L5A cat #49189) by standard immunohistochemistry techniques. To quantify the number of cells double positive for SA-beta-galactosidase and PDL2, 3 random fields from 2 mammary glands from each animal in each treatment group was analyzed with Image J software. Staining for CD3, CD4 and CD8 was also carried out by standard immunohistochemistry techniques on paraffin-embedded material and quantified according to pixel density using Image J software.

The target of assay [1] is T1, cellular hPD-L2 expressed on CHOK-1 cells (Homo sapiens, UniProt Q9BQ51).
T1 construct: GFP; expressed in transfected cells; host or cells: CHO-K1
T1 sequence (Q9BQ51 20-273): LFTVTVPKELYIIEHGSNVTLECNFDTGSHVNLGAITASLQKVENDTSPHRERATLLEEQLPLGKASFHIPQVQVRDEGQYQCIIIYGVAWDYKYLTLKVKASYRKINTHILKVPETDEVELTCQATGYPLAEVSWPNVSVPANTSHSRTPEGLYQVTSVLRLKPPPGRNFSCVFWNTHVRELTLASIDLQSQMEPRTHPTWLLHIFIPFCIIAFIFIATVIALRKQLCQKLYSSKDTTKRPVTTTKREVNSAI
Briefly: Binding of antibodies to cellular hPD-L2 on CHO-K1 cells by flow cytometry. The conditions noted are these: compared to a panel of commercially available anti-PD-L2 antibodies. The protocol: CHO-K1 cells over-expressing either hPDL2-GFP or mPD-L2 GFP were detached, washed in phosphate buffered saline (PBS) and adjusted to a cell concentration of around 1 million cells in cytometry buffer (CB, PBS containing 1% […]). Around 80,000 cells were then distributed into a round-bottom 96 well plate and the plate was centrifuged for 3 minutes at 400 g at 4° C. and supernatant discarded. Appropriate antibody concentrations in 50 microliter volumes were added to the wells and incubated for 30 minutes at 6-8° C. The plate was washed 3 times with PBS and relevant secondary antibodies (either AlexaFluor 647 Goat anti-Mouse IgG (H+L) (Invitrogen A21235/lot 1915807) or AlexaFluor 647 Goat anti-Rat IgG (H+L) (Invitrogen A21247/lot 1921562) were added for 30 minutes at 4° C. Cells were again washed with PBS two times, resuspended in CB and analyzed in either the Sony ID7000 Spectral Cell analyzer (Sony) or the GALLIOS Flow Cytometer (Beckman-Coulter) was used. EC50 was calculated using the Sigmoidal 4PL equation of the GraphPad Prism-9 software.
On the technique in general: A flow cytometer gives signals particle by particle.

For the next assay, the system named is PyMT mammary tumor. Description: Implantable mouse PyMT mammary tumor model. In kind it is in vivo. The conditions noted are these: in combination with doxorubicin, up to day 49, compared to TY-25 in combination with doxorubicin. As to the method: 1 million PyMT cells were injected in PBS into the right mammary fat pad number 4, with an N=10 animals per treatment group. When tumors reached an average of 100 millimeter cubed on day 17 post-injection, treatment regimens were initiated. All mice were sorted into study groups based on caliper estimation of tumor burden. The mice were distributed to ensure that the mean tumor burden for all groups was within 10% of the overall mean tumor burden for the study population. The first dose of doxorubicin was administered intraperitoneally at 4 mg/kg, as well as the antibodies, all at doses of 10 mg/kg intraperitoneally, on day 17 post-implantation. Doxorubicin (MWI Animal Health, BJ0080A/NA) was administered once more on day 24 and antibodies on days 20, 24, 27, 31, 34, 38, 41. The following commercial antibodies were used in the study: anti-mouse PD-L2 (clone TY-25, Bio X Cell lot/cat 0411901. Vehicle-treated animals received only vehicle solvent for doxorubicin as a no-treatment control. Tumor volume was measured at least 2-3 times per week throughout the study with a standard caliper.

In the next assay the target is T2, hPD-L2/hPD-1 interaction (Homo sapiens, UniProt Q9BQ51).
T2 construct: host or cells: CHO-K1 (hPD-L2) co-cultured with Jurkat PD-1 effector cells
T2 sequence (Q9BQ51 20-273): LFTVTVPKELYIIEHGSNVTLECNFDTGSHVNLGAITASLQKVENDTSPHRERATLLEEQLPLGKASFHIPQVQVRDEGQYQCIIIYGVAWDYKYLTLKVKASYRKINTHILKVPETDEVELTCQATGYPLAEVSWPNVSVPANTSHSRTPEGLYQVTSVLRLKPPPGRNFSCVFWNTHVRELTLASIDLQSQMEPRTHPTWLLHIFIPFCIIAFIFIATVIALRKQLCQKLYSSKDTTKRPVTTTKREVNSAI
Briefly: Reporter assay, blocking of cellular hPD-L2/hPD-1 interaction (Jurkat hPD-1 / CHO-K1 hPD-L2 co-culture). In kind it is cell-based. Particulars: reporter in hPD-1 Jurkat cells co-cultured with hPD-L2 CHO-K1 cells; compared to MIH-18, 24F.10C12 and D7U86. The protocol: Cellular blocking activity of antibodies according to the present invention was assessed by with the Promega (Southampton, Hampshire, UK) PD-1/PD-L2 blockade bioassay (Promega, Cat No. CS187131-1), which is a bioluminescent cell-based assay that is used to measure the potency and stability of antibodies and other biologics designed to block the hPD-1/PD-L2 interaction. In brief, CHO-K1 cells overexpressing hPD-L2 were thawed and plated in a 96 well plate. The following day, appropriate concentrations of antibodies were added to the wells. Jurkat PD-1 effector cells, expressing a luminescent NFAT reporter for cell activation, were subsequently thawed and added to the wells immediately. The co-culture was incubated for 6 hours and read using the SpectraMax i3× reader (Molecular Devices, Wokingham, UK). GraphPad Prism 9.0 (GraphPad Software, La Jolla, Ca) was used for the data analysis and data was plotted using a four-parameter non-linear regression model.
A general note: In a reporter assay the amount or activity of a reporter protein is the signal.

B1: VH0/VK0-mIgG1: parental murine anti-PD-L2 antibody on mIgG1 backbone; SEQ ID NO: 21/SEQ ID NO: 22 (antibody, V domains shown)
VH: QVQLQQSGAELVRPGTSVKVSCKASGYAFSNYFIEWVKQRPGQGLEWIGLNIPGSGGSNYAEKFKGKATLTADKSSSTAYMQLSSLTSEDSAVYFCARRRLPPDWYFDVWGTGTTVTVSS
VL: DVVMTQTPLSLPVSLGDQASISCRSSQSLVHSDGNTYLHWYLQKPGQSPKLLIYKVSNRFSGVPDRFSGSGSGTDFTLKISRVEAEDLGVYFCSQSTHVPWTFGGGTKLEIK
As to B1, in the assay on PyMT spontaneous tumors (3 mg/kg antibody with doxorubicin over four weeks, compared to doxorubicin alone or TY-25 and doxorubicin), the final tumor volume result was “greater reduction in final tumor volume”. The tumor growth result with PyMT spontaneous tumors (combination with doxorubicin vs doxorubicin and mIgG1 control) is “inhibited tumor growth more”. In addition, the “relative numbers of CD3+, CD8+ and CD4+ cells in PyMT spontaneous tumors” value in the assay with PyMT spontaneous tumors (combination with doxorubicin, compared to vehicle or doxorubicin-only treated mice (p<0.05)) is “increased relative numbers”. The “inhibition of tumor progression under depleting antibodies against CD4+ cells” value in the assay on PyMT spontaneous tumors (doxorubicin and antibody plus CD4-depleting antibodies) was “only slightly relieved this inhibition”. For the same molecule, the “inhibition of tumor progression under depleting antibodies against CD8+ cells” value in the assay on PyMT spontaneous tumors (doxorubicin and antibody plus CD8-depleting antibodies) is reported as “relieve the inhibition”. Also, the “cells double-positive for PD-L2 and SA-βGal in PyMT tumors” value with PyMT spontaneous tumors (immunohistochemistry, antibody co-treated with doxorubicin vs Vehicle or Doxorubicin+mIgG1 (p<0.05)) is “significantly lower”. In addition, in assay [1], the “binding activity against cellular hPD-L2” value is on record as “superior binding activity”. Besides, in the assay with PyMT mammary tumor, the progression of tumors entry was “smaller progression of tumors”. In the assay with hPD-L2/hPD-1 interaction, the “blocking activity against cellular hPD-L2/hPD-1 interaction” value is recorded as “superior blocking activities”.
